The text below walks through data of the supplement of paper PMC10567573.

To fix the notation:
B1: DLC1 (parent)
chain: NDDSADYQHFLQDCVDGLFKEVKE
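Also: lentivirally expressed fusions sorted by FACS into six bins by GFP to DsRed ratio, PSI derived from sequencing read proportions per bin multiplied by bin number.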

The variants in this series derive from B1. As to the kind of experiment: protein stability index of a GFP-peptide fusion (GPS, HEK-293T) (PSI 1-6); higher = more stable. The note with it: c terminus: a fixed tail appended.
Consider RDDSADYQHFLQDCVDGLFKEVKE, for which the protein stability index worked out at 2.53.
For WDDSADYQHFLQDCVDGLFKEVKE, the protein stability index came out at 1.28.
In the case of SDDSADYQHFLQDCVDGLFKEVKE, the protein stability index stood at 2.6.
The same measure for MDDSADYQHFLQDCVDGLFKEVKE: 1.79.
As for DDDSADYQHFLQDCVDGLFKEVKE, the protein stability index amounted to 1.72.
Take FDDSADYQHFLQDCVDGLFKEVKE: the protein stability index is 1.5.
The same measure for HDDSADYQHFLQDCVDGLFKEVKE: 2.29; for VDDSADYQHFLQDCVDGLFKEVKE: 1.56.
For YDDSADYQHFLQDCVDGLFKEVKE, the protein stability index came out at 2.73.
Next, EDDSADYQHFLQDCVDGLFKEVKE: 3; IDDSADYQHFLQDCVDGLFKEVKE: 1.59; TDDSADYQHFLQDCVDGLFKEVKE: 2.6.
Next, CDDSADYQHFLQDCVDGLFKEVKE: 2.24.
In the case of QDDSADYQHFLQDCVDGLFKEVKE, the protein stability index came out at 2.69.
Next, GDDSADYQHFLQDCVDGLFKEVKE: 1.9.
The same measure for KDDSADYQHFLQDCVDGLFKEVKE: 3.44.
Next, NDDWADYQHFLQDCVDGLFKEVKE: 2.26; NDDLADYQHFLQDCVDGLFKEVKE: 2.91; NDDKADYQHFLQDCVDGLFKEVKE: 1.36.
With NDDFADYQHFLQDCVDGLFKEVKE, the protein stability index amounted to 2.26.
As for NDDYADYQHFLQDCVDGLFKEVKE, the protein stability index is 2.22.
The same measure for NDDMADYQHFLQDCVDGLFKEVKE: 2.05.
Consider NDDPADYQHFLQDCVDGLFKEVKE, for which the protein stability index amounted to 2.34.
Next, NDDCADYQHFLQDCVDGLFKEVKE: 1.56; NDDNADYQHFLQDCVDGLFKEVKE: 2.57.
The same measure for NDDIADYQHFLQDCVDGLFKEVKE: 2; for NDDAADYQHFLQDCVDGLFKEVKE: 2.35.
With NDDGADYQHFLQDCVDGLFKEVKE, the protein stability index stood at 3.56.
Regarding NDDHADYQHFLQDCVDGLFKEVKE, the protein stability index came to 2.65.
The same measure for NDDDADYQHFLQDCVDGLFKEVKE: 2.9; for NDDRADYQHFLQDCVDGLFKEVKE: 2.41; for NDDVADYQHFLQDCVDGLFKEVKE: 2.57.
For the variant NDDEADYQHFLQDCVDGLFKEVKE, the protein stability index worked out at 1.63.
The same measure for NDDSHDYQHFLQDCVDGLFKEVKE: 2.55.
Take NDDSKDYQHFLQDCVDGLFKEVKE: the protein stability index worked out at 2.93.
Next, NDDSLDYQHFLQDCVDGLFKEVKE: 2.73.
NDDSFDYQHFLQDCVDGLFKEVKE: the protein stability index came out at 1.68.
Consider NDDSCDYQHFLQDCVDGLFKEVKE, for which the protein stability index is 2.05.
Next, NDDSQDYQHFLQDCVDGLFKEVKE: 2.55; NDDSTDYQHFLQDCVDGLFKEVKE: 2.46.
The same measure for NDDSYDYQHFLQDCVDGLFKEVKE: 2.17; for NDDSMDYQHFLQDCVDGLFKEVKE: 2.15.
For the variant NDDSDDYQHFLQDCVDGLFKEVKE, the protein stability index worked out at 2.42.
Regarding NDDSPDYQHFLQDCVDGLFKEVKE, the protein stability index came out at 2.4.
The same measure for NDDSSDYQHFLQDCVDGLFKEVKE: 1.91; for NDDSRDYQHFLQDCVDGLFKEVKE: 2.49.
As for NDDSVDYQHFLQDCVDGLFKEVKE, the protein stability index was 2.02.
The same measure for NDDSIDYQHFLQDCVDGLFKEVKE: 2.05.
Take NDDSGDYQHFLQDCVDGLFKEVKE: the protein stability index is 2.4.
As for NDDSEDYQHFLQDCVDGLFKEVKE, the protein stability index came out at 2.92.
Next, NDDSNDYQHFLQDCVDGLFKEVKE: 2.9.
The same measure for NDDSWDYQHFLQDCVDGLFKEVKE: 2.1; for NDDSANYQHFLQDCVDGLFKEVKE: 2.4.
The same measure for NDDSAFYQHFLQDCVDGLFKEVKE: 2.81; for NDDSAHYQHFLQDCVDGLFKEVKE: 3.3; for NDDSAWYQHFLQDCVDGLFKEVKE: 2.52.
As to NDDSARYQHFLQDCVDGLFKEVKE, the protein stability index amounted to 2.94.
The same measure for NDDSATYQHFLQDCVDGLFKEVKE: 2.5; for NDDSAIYQHFLQDCVDGLFKEVKE: 2.32.
The same measure for NDDSAVYQHFLQDCVDGLFKEVKE: 2.24; for NDDSACYQHFLQDCVDGLFKEVKE: 2.8; for NDDSAPYQHFLQDCVDGLFKEVKE: 3.38.
Next, NDDSAKYQHFLQDCVDGLFKEVKE: 3; NDDSAEYQHFLQDCVDGLFKEVKE: 3.29.
Take NDDSAAYQHFLQDCVDGLFKEVKE: the protein stability index was determined as 2.32.
Next, NDDSAGYQHFLQDCVDGLFKEVKE: 3.62; NDDSALYQHFLQDCVDGLFKEVKE: 2.03.
The same measure for NDDSAMYQHFLQDCVDGLFKEVKE: 2.63.
Next, NDDSAQYQHFLQDCVDGLFKEVKE: 3.12.
Take NDDSASYQHFLQDCVDGLFKEVKE: the protein stability index was found to be 3.44.
The same measure for NDYSADYQHFLQDCVDGLFKEVKE: 2.24; for NDFSADYQHFLQDCVDGLFKEVKE: 3.3.
Next, NDVSADYQHFLQDCVDGLFKEVKE: 3.69; NDNSADYQHFLQDCVDGLFKEVKE: 3.02; NDWSADYQHFLQDCVDGLFKEVKE: 1.71.
Next, NDGSADYQHFLQDCVDGLFKEVKE: 2.23; NDTSADYQHFLQDCVDGLFKEVKE: 2.2; NDMSADYQHFLQDCVDGLFKEVKE: 2.26.
Consider NDRSADYQHFLQDCVDGLFKEVKE, for which the protein stability index was determined as 1.79.
Turning to NDHSADYQHFLQDCVDGLFKEVKE, the protein stability index came to 2.17.
The same measure for NDESADYQHFLQDCVDGLFKEVKE: 3.85; for NDCSADYQHFLQDCVDGLFKEVKE: 1.71; for NDASADYQHFLQDCVDGLFKEVKE: 2.77.
With NDPSADYQHFLQDCVDGLFKEVKE, the protein stability index was 2.65.
Take NDISADYQHFLQDCVDGLFKEVKE: the protein stability index was 2.19.
The same measure for NDSSADYQHFLQDCVDGLFKEVKE: 2.4.
The same measure for NMDSADYQHFLQDCVDGLFKEVKE: 2.48; for NWDSADYQHFLQDCVDGLFKEVKE: 2.15; for NLDSADYQHFLQDCVDGLFKEVKE: 2.37.
The same measure for NNDSADYQHFLQDCVDGLFKEVKE: 2.27; for NADSADYQHFLQDCVDGLFKEVKE: 2.17; for NIDSADYQHFLQDCVDGLFKEVKE: 2.18.
Regarding NHDSADYQHFLQDCVDGLFKEVKE, the protein stability index came out at 2.66.
Next, NKDSADYQHFLQDCVDGLFKEVKE: 2.11.
